Results on 17 molecules are retold here after PMC6029887 (Cell reports, 2018).

Broadly, the Kd is the equilibrium constant for the complex coming apart.

The target of data set [1] is Cadherin-11 L20Y Q97H (YH) specificity mutant, adhesive fragment (mouse) (mouse). In words: AUC.
Data set [2] addresses chimera cad-6EC111EC2 (cadherin-6 EC1 joined to cadherin-11 EC2) (mouse). The data set is described as follows: AUC.
In data set [3] the target is cadherin-18 EC1-EC2 adhesive fragment (mouse), wild-type (mouse). In words: AUC.
Data set [4] has as its target Cadherin-6 M3V Y20L H97Q E89P (VLQP) specificity mutant, adhesive fragment (mouse) (mouse). In words: AUC.
The target in data set [5] is Cadherin-6 Y20L H97Q (LQ) specificity mutant, adhesive fragment (mouse) (mouse). In words: AUC.
Data set [6] deals with chimera cad-11EC16EC2 (cadherin-11 EC1 joined to cadherin-6 EC2) (mouse) (UniProt P97326). In words: AUC.
The target of data set [7] is Cadherin-11 V3M L20Y Q97H P89E (MYHE) specificity mutant, adhesive fragment (mouse) (mouse). The data set is described as follows: AUC.
The data set “AUC” deals with the molecule itself. The data set is described as follows: AUC.
The target in data set [8] is T1, Cys-tagged cadherin-7 adhesive fragment (mouse) (mouse, UniProt Q8BM92 48-254).
T1 sequence: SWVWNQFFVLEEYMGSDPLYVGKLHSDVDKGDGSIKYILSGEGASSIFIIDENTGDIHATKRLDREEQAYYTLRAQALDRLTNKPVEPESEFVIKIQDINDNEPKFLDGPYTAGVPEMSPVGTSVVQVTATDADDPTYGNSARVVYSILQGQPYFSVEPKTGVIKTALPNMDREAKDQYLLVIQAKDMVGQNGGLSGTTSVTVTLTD
The data set is described as follows: SPR.

Data set [9] addresses T2, Cys-tagged cadherin-10 adhesive fragment (mouse) (mouse, UniProt P70408 55-261).
T2 sequence: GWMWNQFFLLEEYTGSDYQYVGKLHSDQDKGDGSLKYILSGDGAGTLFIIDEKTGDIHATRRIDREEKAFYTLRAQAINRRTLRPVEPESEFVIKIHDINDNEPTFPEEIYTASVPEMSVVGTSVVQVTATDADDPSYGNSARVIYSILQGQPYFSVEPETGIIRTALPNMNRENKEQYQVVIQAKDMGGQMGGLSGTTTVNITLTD
In words: SPR.

Data set [10] addresses T3, Cys-tagged cadherin-6 adhesive fragment (mouse) (mouse, UniProt P97326 54-260).
T3 sequence: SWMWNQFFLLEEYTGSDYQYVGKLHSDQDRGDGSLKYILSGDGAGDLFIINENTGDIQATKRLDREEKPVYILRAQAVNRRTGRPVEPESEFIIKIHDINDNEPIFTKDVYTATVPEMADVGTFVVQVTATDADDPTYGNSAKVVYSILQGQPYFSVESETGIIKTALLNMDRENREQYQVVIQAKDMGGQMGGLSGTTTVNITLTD
The data set is described as follows: SPR. A general note: Surface plasmon resonance follows binding to a sensor surface in real time, without labels.

“Cadherin-11 L20Y Q97H (YH) specificity mutant, adhesive fragment (mouse) (domain or fragment)” gave a Kd in [1] of 11.1 µM.
Turning to “chimera cad-6EC111EC2 (cadherin-6 EC1 joined to cadherin-11 EC2) (domain or fragment)”, in data set [2], the Kd was found to be 5.6 µM.
“cadherin-18 EC1-EC2 adhesive fragment (mouse), wild-type (domain or fragment)” came in with a Kd in data set [3] of 16.8 µM.
“Cadherin-6 M3V Y20L H97Q E89P (VLQP) specificity mutant, adhesive fragment (mouse) (domain or fragment)” gave a Kd in data set [4] of 6.73 µM.
For the molecule “Cadherin-6 Y20L H97Q (LQ) specificity mutant, adhesive fragment (mouse) (domain or fragment)”, in data set [5], the Kd was found to be 9.63 µM.
In data set [6], “chimera cad-11EC16EC2 (cadherin-11 EC1 joined to cadherin-6 EC2) (from UniProt P97326 151-260) (domain or fragment)” displayed a Kd of 15.6 µM.
“Cadherin-11 V3M L20Y Q97H P89E (MYHE) specificity mutant, adhesive fragment (mouse) (domain or fragment)” yielded a dissociation constant (Kd) in data set [7] of 8.2 µM.

B1: cadherin-6 EC1-EC2 adhesive fragment (mouse), wild-type (domain or fragment)
chain: SWMWNQFFLLEEYTGSDYQYVGKLHSDQDRGDGSLKYILSGDGAGDLFIINENTGDIQATKRLDREEKPVYILRAQAVNRRTGRPVEPESEFIIKIHDINDNEPIFTKDVYTATVPEMADVGTFVVQVTATDADDPTYGNSAKVVYSILQGQPYFSVESETGIIKTALLNMDRENREQYQVVIQAKDMGGQMGGLSGTTTVNITLTD
With B1, in “AUC”, binding was put at a Kd of 3.1 µM. The binding result in data set [8] and in [9] was “binds” each time.

B2: cadherin-12 EC1-EC2 adhesive fragment (mouse), wild-type (domain or fragment)
chain: GWVWNQFFVLEEYMGSEPQYVGKLHSDLDKGEGTVKYTLSGDGAGTVFTIDETTGDIHAIRSLDREEKPFYTLRAQAVDIETRKPLEPESEFIIKVQDINDNEPKFLDGPYVASVPEMSPVGAYVLQVKATDADDPTYGNSARVVYSILQGQPYFSIDPKTGVIRTALPNMDREVKEQYQVLIQAKDMGGQLGGLAGTTVVNITLTDVNDNPPRF
In turn, B2 came in with a Kd in “AUC” of 8.3 µM.

B3: cadherin-10 EC1-EC2 adhesive fragment (mouse), wild-type (domain or fragment)
chain: GWMWNQFFLLEEYTGSDYQYVGKLHSDQDKGDGSLKYILSGDGAGTLFIIDEKTGDIHATRRIDREEKAFYTLRAQAINRRTLRPVEPESEFVIKIHDINDNEPTFPEEIYTASVPEMSVVGTSVVQVTATDADDPSYGNSARVIYSILQGQPYFSVEPETGIIRTALPNMNRENKEQYQVVIQAKDMGGQMGGLSGTTTVNITLTD
B3 yielded a Kd in “AUC” of 42.2 µM. The binding result in [8] and in data set [10] was “binds” in each case.

B4: cadherin-9 EC1-EC2 adhesive fragment (mouse), wild-type (domain or fragment)
chain: GWMWNQFFLLEEYTGTDTQYVGKLHTDQDKGDGNLKYILTGDGAGNLFVIDENTGDIHAAKRLDREEKSLYILRAKAIDRKTGRQVEPESEFIIKIHDINDNEPKFTKDLYTASVPEMSGVGTSVIQVTATDADDANYGNSAKVVYSILQGQPYFSVDPESGIIKTALPDMSRENKEQYQVVIQAKDMGGQMGGLSGTTTVNITLTDVNNNPPRF
In turn, B4 showed a Kd in “AUC” of 17 µM.

B5: cadherin-20 EC1-EC2 adhesive fragment (mouse), wild-type (domain or fragment)
chain: SWVWNQFFVLEEYTGTDPLYVGKLHSDMDRGDGSIKYILSGEGAGIVFTIDDTTGDIHAIQRLDREERAQYTLRAQALDRRTGRPMEPESEFIIKIQDINDNEPKFLDGPYIATVPEMSPVGTSVIQVTATDADDPTYGNSARVVYSILQGQPYFSVDSKTGVIRTALMNMDREAKEYYEVIIQAKDMGGQLGGLAGTTTVNITLSDVNDNPPRF
Regarding B5, binding in “AUC” was put at a Kd of 9.3 µM.

B6: cadherin-22 EC1-EC2 adhesive fragment (mouse), wild-type (domain or fragment)
chain: GWVWNQFFVVEEYTGTEPLYVGKIHSDSDEGDGTIKYTISGEGAGTIFLIDELTGDIHATERLDREQKTFYTLRAQARDRATNRLLEPESEFIIKVQDINDSEPRFLHGPYIGSVAELSPTGTSVMQVMASDADDPTYGSSARLVYSVLDGEHHFTVDPKTGVIRTAVPDLDRESQERYEVVIQATDMAGQLGGLSGSTTVTIVVTD
B6: in “AUC”, the affinity, expressed as Kd, was 3.9 µM.

B7: cadherin-7 EC1-EC2 adhesive fragment (mouse), wild-type (domain or fragment)
chain: SWVWNQFFVLEEYMGSDPLYVGKLHSDVDKGDGSIKYILSGEGASSIFIIDENTGDIHATKRLDREEQAYYTLRAQALDRLTNKPVEPESEFVIKIQDINDNEPKFLDGPYTAGVPEMSPVGTSVVQVTATDADDPTYGNSARVVYSILQGQPYFSVEPKTGVIKTALPNMDREAKDQYLLVIQAKDMVGQNGGLSGTTSVTVTLTD
Consider B7, for which the equilibrium dissociation constant (Kd) in “AUC” stood at 32.2 µM. The binding result in data set [10] and in data set [9] was “binds” each time.

B8: cadherin-8 EC1-EC3 fragment (mouse), wild-type (domain or fragment)
chain: GWVWNQMFVLEEFSGPEPILVGRLHTDLDPGSKKIKYILSGDGAGTIFQINDITGDIHAIKRLDREEKAEYTLTAQAVDFETNKPLEPPSEFIIKVQDINDNAPEFLNGPYHATVPEMSILGTSVTNVTATDADDPVYGNSAKLVYSILEGQPYFSIEPETAIIKTALPNMDREAKEEYLVVIQAKDMGGHSGGLSGTTTLTVTLTDVNDNPPKFAQSLYHFSVPEDVVLGTAIGRVKANDQDIGENAQSSYDIIDGDGTALFEITSDAQAQDGVIRLRKPLDFETKKSYTLKVEAANIHIDPRFSSRGPFKDTATVKIVVEDADEPPVF
B8 came in with a Kd in the data set “AUC” of 15 µM.

B9: cadherin-11 EC1-EC2 adhesive fragment (mouse), wild-type (domain or fragment)
chain: GWVWNQFFVIEEYTGPDPVLVGRLHSDIDSGDGNIKYILSGEGAGTIFVIDDKSGNIHATKTLDREERAQYTLMAQAVDRDTNRPLEPPSEFIVKVQDINDNPPEFLHEIYHANVPERSNVGTSVIQVTASDADDPTYGNSAKLVYSILEGQPYFSVEAQTGIIRTALPNMDREAKEEYHVVIQAKDMGGHMGGLSGTTKVTITLTDVNDNPPKF
For B9, binding in the data set “AUC” was characterised by a dissociation constant (Kd) of 33.8 µM.

B10: cadherin-24 EC1-EC3 fragment (mouse), wild-type (domain or fragment)
chain: SWVWNQFFVIEEYSGPEPVLIGKLHSDVDRGEGRTKYLLTGEGAGTVFVIDEATGNIHVTKSLDREEKAQYVLLAQAVDRASNRPLEPPSEFIIKVQDINDNPPVFPLGPYHATVPEMSNVGTSVIQVTAHDADDPSYGNSAKLVYTVLDGLPFFSVDPQTGVVRTAIPNMDRETQEEFLVVIQAKDMGGHMGGLSGSTTVTVTLSDVNDNPPKFPQSLYQFSVVETAGPGTLVGRLKAQDPDLGDNALVAYSILNGEGSEVFSISTDSQGQDGLLTVRKPLDFETRRSYTFRVEATNTLIDPAYLRRGPFKDVASVRVTVQDAPEPPAF
In turn, B10 gave a Kd in the data set “AUC” of 8.2 µM.
